According to ChEMBL document CHEMBL1143427, “Interactions of ceftobiprole with beta-lactamases from molecular classes A to D” (Antimicrob Agents Chemother, 2007):

How the values were obtained:
[1] = substrate: Nc1nc(/C(=N/O)C(=O)N[C@@H]2C(=O)N3C(C(=O)O)=C(/C=C4\CCN([C@@H]5CCNC5)C4=O)CS[C@H]23)ns1; test: (§1) Ratio of Kcat to Km of Pseudomonas aeruginosa MK-1184 AmpC assessed as drug hydrolysis by spectrophotometry
[2] = substrate: CC(C)(O/N=C(\C(=O)N[C@@H]1C(=O)N2C(C(=O)[O-])=C(C[n+]3ccccc3)CS[C@H]12)c1csc(N)n1)C(=O)O; test: as §1
[3] = substrate: O=C(Cc1cccs1)N[C@@H]1C(=O)N2C(C(=O)[O-])=C(C[n+]3ccccc3)CS[C@H]12; test: as §1
[4] = substrate: CO/N=C(\C(=O)N[C@@H]1C(=O)N2C(C(=O)[O-])=C(C[N+]3(C)CCCC3)CS[C@H]12)c1csc(N)n1; test: as §1
[5] = substrate: CC1(C)S[C@@H]2[C@H](NC(=O)Cc3ccccc3)C(=O)N2[C@H]1C(=O)O; test: as §1
[6] = substrate: Nc1nc(/C(=N/O)C(=O)N[C@@H]2C(=O)N3C(C(=O)O)=C(/C=C4\CCN([C@@H]5CCNC5)C4=O)CS[C@H]23)ns1; test: (§2) Activity of Pseudomonas aeruginosa 18SH AmpC assessed as drug hydrolysis by spectrophotometry
[7] = substrate: CC(C)(O/N=C(\C(=O)N[C@@H]1C(=O)N2C(C(=O)[O-])=C(C[n+]3ccccc3)CS[C@H]12)c1csc(N)n1)C(=O)O; test: as §2
[8] = substrate: O=C(Cc1cccs1)N[C@@H]1C(=O)N2C(C(=O)[O-])=C(C[n+]3ccccc3)CS[C@H]12; test: as §2
[9] = substrate: CO/N=C(\C(=O)N[C@@H]1C(=O)N2C(C(=O)[O-])=C(C[N+]3(C)CCCC3)CS[C@H]12)c1csc(N)n1; test: as §2
[10] = substrate: CC1(C)S[C@@H]2[C@H](NC(=O)Cc3ccccc3)C(=O)N2[C@H]1C(=O)O; test: as §2
[11] = substrate: Nc1nc(/C(=N/O)C(=O)N[C@@H]2C(=O)N3C(C(=O)O)=C(/C=C4\CCN([C@@H]5CCNC5)C4=O)CS[C@H]23)ns1; test: (§3) Activity of Pseudomonas aeruginosa AmpC assessed as drug hydrolysis by spectrophotometry
[12] = substrate: CC(C)(O/N=C(\C(=O)N[C@@H]1C(=O)N2C(C(=O)[O-])=C(C[n+]3ccccc3)CS[C@H]12)c1csc(N)n1)C(=O)O; test: as §3
[13] = substrate: O=C(Cc1cccs1)N[C@@H]1C(=O)N2C(C(=O)[O-])=C(C[n+]3ccccc3)CS[C@H]12; test: as §3
[14] = substrate: CO/N=C(\C(=O)N[C@@H]1C(=O)N2C(C(=O)[O-])=C(C[N+]3(C)CCCC3)CS[C@H]12)c1csc(N)n1; test: as §3
[15] = substrate: CC1(C)S[C@@H]2[C@H](NC(=O)Cc3ccccc3)C(=O)N2[C@H]1C(=O)O; test: as §3
[16] = substrate: Nc1nc(/C(=N/O)C(=O)N[C@@H]2C(=O)N3C(C(=O)O)=C(/C=C4\CCN([C@@H]5CCNC5)C4=O)CS[C@H]23)ns1; test: (§4) Activity of Pseudomonas aeruginosa MK-1184 AmpC assessed as drug hydrolysis by spectrophotometry
[17] = substrate: CC(C)(O/N=C(\C(=O)N[C@@H]1C(=O)N2C(C(=O)[O-])=C(C[n+]3ccccc3)CS[C@H]12)c1csc(N)n1)C(=O)O; test: as §4
[18] = substrate: O=C(Cc1cccs1)N[C@@H]1C(=O)N2C(C(=O)[O-])=C(C[n+]3ccccc3)CS[C@H]12; test: as §4
[19] = substrate: CO/N=C(\C(=O)N[C@@H]1C(=O)N2C(C(=O)[O-])=C(C[N+]3(C)CCCC3)CS[C@H]12)c1csc(N)n1; test: as §4
[20] = substrate: CC1(C)S[C@@H]2[C@H](NC(=O)Cc3ccccc3)C(=O)N2[C@H]1C(=O)O; test: as §4
[21] = substrate: Nc1nc(/C(=N/O)C(=O)N[C@@H]2C(=O)N3C(C(=O)O)=C(/C=C4\CCN([C@@H]5CCNC5)C4=O)CS[C@H]23)ns1; test: (§5) Activity of Pseudomonas aeruginosa 4352 AmpC assessed as drug hydrolysis by spectrophotometry
[22] = substrate: CC(C)(O/N=C(\C(=O)N[C@@H]1C(=O)N2C(C(=O)[O-])=C(C[n+]3ccccc3)CS[C@H]12)c1csc(N)n1)C(=O)O; test: as §5
[23] = substrate: O=C(Cc1cccs1)N[C@@H]1C(=O)N2C(C(=O)[O-])=C(C[n+]3ccccc3)CS[C@H]12; test: as §5
[24] = substrate: CO/N=C(\C(=O)N[C@@H]1C(=O)N2C(C(=O)[O-])=C(C[N+]3(C)CCCC3)CS[C@H]12)c1csc(N)n1; test: as §5
[25] = substrate: CC1(C)S[C@@H]2[C@H](NC(=O)Cc3ccccc3)C(=O)N2[C@H]1C(=O)O; test: as §5
[26] = substrate: O=C(Cc1cccs1)N[C@@H]1C(=O)N2C(C(=O)O)=C(/C=C/c3ccc([N+](=O)[O-])cc3[N+](=O)[O-])CS[C@H]12; test: as §5
[27] = substrate: Nc1nc(/C(=N/O)C(=O)N[C@@H]2C(=O)N3C(C(=O)O)=C(/C=C4\CCN([C@@H]5CCNC5)C4=O)CS[C@H]23)ns1; test: (§6) Ratio of Kcat to Km of Pseudomonas aeruginosa 18SH AmpC assessed as drug hydrolysis by spectrophotometry
[28] = substrate: O=C(Cc1cccs1)N[C@@H]1C(=O)N2C(C(=O)[O-])=C(C[n+]3ccccc3)CS[C@H]12; test: as §6
[29] = substrate: CO/N=C(\C(=O)N[C@@H]1C(=O)N2C(C(=O)[O-])=C(C[N+]3(C)CCCC3)CS[C@H]12)c1csc(N)n1; test: as §6
[30] = substrate: CC1(C)S[C@@H]2[C@H](NC(=O)Cc3ccccc3)C(=O)N2[C@H]1C(=O)O; test: as §6
[31] = substrate: Nc1nc(/C(=N/O)C(=O)N[C@@H]2C(=O)N3C(C(=O)O)=C(/C=C4\CCN([C@@H]5CCNC5)C4=O)CS[C@H]23)ns1; test: (§7) Ratio of Kcat to Km of Pseudomonas aeruginosa 4352 AmpC assessed as drug hydrolysis by spectrophotometry
[32] = substrate: CC(C)(O/N=C(\C(=O)N[C@@H]1C(=O)N2C(C(=O)[O-])=C(C[n+]3ccccc3)CS[C@H]12)c1csc(N)n1)C(=O)O; test: as §7
[33] = substrate: O=C(Cc1cccs1)N[C@@H]1C(=O)N2C(C(=O)[O-])=C(C[n+]3ccccc3)CS[C@H]12; test: as §7
[34] = substrate: CO/N=C(\C(=O)N[C@@H]1C(=O)N2C(C(=O)[O-])=C(C[N+]3(C)CCCC3)CS[C@H]12)c1csc(N)n1; test: as §7
[35] = substrate: CC1(C)S[C@@H]2[C@H](NC(=O)Cc3ccccc3)C(=O)N2[C@H]1C(=O)O; test: as §7
[36] = substrate: O=C(Cc1cccs1)N[C@@H]1C(=O)N2C(C(=O)O)=C(/C=C/c3ccc([N+](=O)[O-])cc3[N+](=O)[O-])CS[C@H]12; test: as §7
[37] = substrate: Nc1nc(/C(=N/O)C(=O)N[C@@H]2C(=O)N3C(C(=O)O)=C(/C=C4\CCN([C@@H]5CCNC5)C4=O)CS[C@H]23)ns1; test: (§8) Ratio of Kcat to Km of Pseudomonas aeruginosa AmpC assessed as drug hydrolysis by spectrophotometry
[38] = substrate: O=C(Cc1cccs1)N[C@@H]1C(=O)N2C(C(=O)[O-])=C(C[n+]3ccccc3)CS[C@H]12; test: as §8
[39] = substrate: CO/N=C(\C(=O)N[C@@H]1C(=O)N2C(C(=O)[O-])=C(C[N+]3(C)CCCC3)CS[C@H]12)c1csc(N)n1; test: as §8
[40] = substrate: CC1(C)S[C@@H]2[C@H](NC(=O)Cc3ccccc3)C(=O)N2[C@H]1C(=O)O; test: as §8

B1: Beta-lactamase (Pseudomonas aeruginosa (strain ATCC 15692 / PAO1 / 1C / PRS 101 / LMG12228)), P24735 (protein)
chain: MRDTRFPCLCGIAASTLLFATTPAIAGEAPADRLKALVDAAVQPVMKANDIPGLAVAISLKGEPHYFSYGLASKEDGRRVTPETLFEIGSVSKTFTATLAGYALTQDKMRLDDRASQHWPALQGSRFDGISLLDLATYTAGGLPLQFPDSVQKDQAQIRDYYRQWQPTYAPGSQRLYSNPSIGLFGYLAARSLGQPFERLMEQQVFPALGLEQTHLDVPEAALAQYAQGYGKDDRPLRVGPGPLDAEGYGVKTSAADLLRFVDANLHPERLDRPWAQALDATHRGYYKVGDMTQGLGWEAYDWPISLKRLQAGNSTPMALQPHRIARLPAPQALEGQRLLNKTGSTNGFGAYVAFVPGRDLGLVILANRNYPNAERVKIAYAILSGLEQQGKVPLKR
- kcat/Km [1]: 11000 M⁻¹ s⁻¹
- kcat/Km [2]: 58000 M⁻¹ s⁻¹
- kcat/Km [3]: 1.1e+06 M⁻¹ s⁻¹
- kcat/Km [4]: 8600 M⁻¹ s⁻¹
- kcat/Km [5]: 6.7e+06 M⁻¹ s⁻¹
- Km [6]: 280 µM
- kcat [6]: 3.6 s⁻¹
- Km [7]: 20 µM
- kcat [7]: < 0.1 s⁻¹
- Km [8]: 71 µM
- kcat [8]: 130 s⁻¹
- Km [9]: 210 µM
- kcat [9]: < 0.1 s⁻¹
- Km [10]: 40 µM
- kcat [10]: 45 s⁻¹
- Km [11]: 29 µM
- kcat [11]: 230 s⁻¹
- kcat [12]: < 0.0095 s⁻¹
- Km [13]: 200 µM
- kcat [13]: 16 s⁻¹
- Km [14]: 230 µM
- kcat [14]: 3.1 s⁻¹
- Km [15]: 7.9 µM
- kcat [15]: 86 s⁻¹
- Km [16]: 42 µM
- kcat [16]: 0.45 s⁻¹
- Km [17]: 12 µM
- kcat [17]: 0.69 s⁻¹
- Km [18]: 21 µM
- kcat [18]: 22 s⁻¹
- Km [19]: 38 µM
- kcat [19]: 0.33 s⁻¹
- Km [20]: 3 µM
- kcat [20]: 20 s⁻¹
- Km [21]: 55 µM
- kcat [21]: < 0.024 s⁻¹
- Km [22]: 8 µM
- kcat [22]: < 0.01 s⁻¹
- Km [23]: 320 µM
- kcat [23]: 100 s⁻¹
- Km [24]: 370 µM
- kcat [24]: < 0.012 s⁻¹
- Km [25]: 11 µM
- kcat [25]: 37 s⁻¹
- Km [26]: 12 µM
- kcat [26]: 68 s⁻¹
- kcat/Km [27]: 13000 M⁻¹ s⁻¹
- kcat/Km [28]: 1.8e+06 M⁻¹ s⁻¹
- kcat/Km [29]: 9000 M⁻¹ s⁻¹
- kcat/Km [30]: 1.1e+06 M⁻¹ s⁻¹
- kcat/Km [31]: < 440 M⁻¹ s⁻¹
- kcat/Km [32]: < 1300 M⁻¹ s⁻¹
- kcat/Km [33]: 310000 M⁻¹ s⁻¹
- kcat/Km [34]: < 33 M⁻¹ s⁻¹
- kcat/Km [35]: 3.4e+06 M⁻¹ s⁻¹
- kcat/Km [36]: 5.7e+06 M⁻¹ s⁻¹
- kcat/Km [37]: 7.9e+06 M⁻¹ s⁻¹
- kcat/Km [38]: 80000 M⁻¹ s⁻¹
- kcat/Km [39]: 1300 M⁻¹ s⁻¹
- kcat/Km [40]: 1.1e+07 M⁻¹ s⁻¹
